In the nanobody polyreactivity screen of Harvey et al. (2022):

Test: yeast display, Sf9 membrane polyspecificity reagent, FACS + sequencing; frameworks hold sequencing errors
Summary of the method: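 Galactose-induced (36–48 hours) yeast carrying a synthetic nanobody display library were exposed to 10% biotinylated, detergent-solubilized Sf9 membrane reagent at 4 °C for 1 hour. FACS followed streptavidin microbead enrichment, using low and high (top ~1%) gates for expression (anti-HA) and reagent binding (streptavidin). Colony PCR, MiSeq 2 × 250 sequencing and CDR-length filtering followed. Labels for polyreactivity reflect the gate of origin.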

Sequence	polyreactivity (PSR sort gate)
QVQLVESGGGLVQAGGSLRLSCAASGFTFYDYAMGWYRQAPGKEREFVAAITWSGSSTYYADSVKGRFTISRDNAKNTVYLQMNSLKPEVTAVYYCAVGPFRRRGHYPTYYRYGYWGQGTQVTVSS	high polyreactivity
QVQLEESGGGLVQAGGSLRLSCAASGSTFPGNGMGCYRPEPGKERELVAYISGGGDSTYYADSVKGRFTISRDNAKNTVYLQMNSLKPEETAVYYCAADYRQEPGYTGYYYWGHGTQVTVSS	low polyreactivity
QVQLVESGGGLVQAGGSLRLSCAASGSTFWRYAMGWYRQAPGKERELVAGITWNGGSTYYADSVKGRFTISRDNAKNTVYLQMNSLKPEDTAVYYCAARRTWGYIYRLGYGMDYWGQGTQVTVSS	high polyreactivity
QFQLVESGGGLVQAGGSLRLSCAASGRTFQHNVMGWYIQAPGKERELVASITCRGGSTYYADSVKGRFTISRDNAKNTVYLQMNSLKPEDTAVYYCAARNGFRRVRFDYWGQGTQVTVSS	low polyreactivity
QVQLVESGGGLVQAGGSLRLSCAASGFPIHAYVMGWYRQAPGKERELVAAISSGGSTYYADSVKGRFTISRDNAKKTVYLQMNSLKPEDTAVYYCAAGYPYYWHFDYWGQGTQVTVSS	low polyreactivity
QVQLVESGGGLVQAGGSLRLSCAASGGIFRVYAMGWYRQAPGKERELVAAISRSGSSTYYADSVKGRFTISRDNAKNTVYLQMNSLKPEDTAVYYCNAYSQYWLGNNYWGQGSQVTVSS	high polyreactivity
QVQLVESGGGLVQAGGSLRLSCAASGFTFWVYAMGWYRQATGKEREFVASISWTGDTTYYADSVKGRFTISRDNAKNTVYLQMNSLKPEDTAVYYCAVDTILGYDYWGQGTQVTVSS	low polyreactivity
QVQLVESGGGLVQAGGSLRLTCAASGFIFVTDAMGWYRQAPGKERELVAAITNSGGTTYYADSVKGRFTISRDNAKNTVYLQMNSLKPEDPAVYYCNKQWYTATYRESYYWGQGTQVTVSS	low polyreactivity
QVQLVESGGGLVQAGGSLRLRCAASGRTFELYAMGWYRQAPGKERALVAAITASGGTTYYADSVKGRFTISRDNAKNTVYLQMNSLKPEDTAVYYCAAEYSYYPFTDYDYWGQGTQVSVSS	high polyreactivity
QVQLVESGGGLVQAGGSLRLSCAATGSIFSLYAMGWYRQSPGKERELVADITYSGGNTYYADSVKGRFTISRDNAKNTVYLHMNSLKPEDTAVYYCNAYYFDYWYWYDYWGQGTQVTVSS	high polyreactivity
QVQLVESGGGLVQAGGSLRLSCAASGRTFYNAMGWYRQAPVKEMELVAAITTGGGTKYADSVKGRFTISRDNAKNTFYLQMNSLKPEDTAVYYCNTDEWYHFYHGAHKYDYWGQGTQVTLSS	low polyreactivity
QVQLVESGGGLVQAGRSLRLSCAASGITFPVYPMGWYRQAPGKERELVATITSSGGRTYYADSVKGRFTISRDNAKNTVYLQMNSLKPEDSAVYYCAAANGKGQGGYDYWGHGTQVTVSS	high polyreactivity
QVQIVESGGGLVQAGGSLRLSCAASGRTLRYYSMGWYRQAPGKERELVAAISGSGGRTYYADSVKGRFTISRDNAKNTVYLQMNSLKPVDTAVYYCAKRYYRTAGDMDYWGLGTQVTVSS	high polyreactivity
QVQLVESGGGLVQAGGSLRVSCAASGFTFYQYGMGWYRQAPGKERELVATSTSGGRTNYADSVKGRFTISRDNAKNTVYLQMNSLKPEDTAVYYCNKLPYYPRVGRIGRYYYWGQGTQVTVSS	high polyreactivity
QVQLVESGGGLLHAGGSLRLSCAASGRTFDHYAMGWYRQAPGKERELVAAISSRGSSTYYADSVKGRFTISRDNAKNTVYLQMNSLKPEDTAVYYCAAKYIRDYTSNPRGYWGHGTQVTVSS	high polyreactivity
QVQLVESGGGLVQAGGSLRLSCAASGGIFGYYAMGWYRQAPGTEREFVAAITARGGRTYYADSVKGRFTISRDNAKNTVYLQMNSLKPEDTAVYDCAAYSPVWGRYYHRVERDYWGQGTQVTVSS	high polyreactivity
QVQLVESGGGLVQAGGSLRLSCAASGLIFYDNVMGWYRQAPVKEREFVAAITSIGGSTYYADSVKGRFTISRDNAKNTVYLQMNSLKPEDTAVYYCNVKSKYYSPNYDYWGQGTQVTVSS	low polyreactivity
QVQLVESGGGLVQAGGSLRLSCAASGRIFTYNAMGWYRQAPGKERELVAVISRRGGSTYYADSVKGRFTSSRDNAKNPVYLQMNSLTPEDSAVYYCAADLPSYPYEYWGQGPQVTVSS	low polyreactivity
QVQLVESGGGLVHAGGSLRLSCAASGSTFKGYAMGWYRQAPGKERELVASIRSSSGSTYYADSVKGRFTISRDNAKNTVYLQMNSLKPEDTAVYYCATALWVRYYGQGGYIRRYDYWGQGTHVTVSS	high polyreactivity
QVQLVESGGGLVQAGGSLRLSCAASGSIFDRNAMGWYRQAPGKERELVAAITSGGSTYYADSVKGRFTISRDNAKNTVYLQMNSLKAEDTAVYYCNADADPPVPLYYWGQGTQVTVSS	low polyreactivity
QVQRVESGGGLVQAGGSLRLSCAASGRISSWNAMGWYRQAPGKERELVATISRRGGSTYYADSVKGRFTISRDNAKNTVYFQMNSLKQEDTAVYYCAKSSWTYGAYNYWGQGTQVTVSS	high polyreactivity
QVQLVETGGGLVQAGGSLRLSCAASGFTFASYAMGWYRQAPGKERELVAAITWGTGTTSYADSVKGRFTISRDNAKNTVYLQMNSLKPEDTAVYYCATRYRQITYRRRYDYWGQGTQVTVSS	low polyreactivity

Sequence	polyreactivity (PSR sort gate)
QVQLVESGGGLVQAGGSLRLSCAASGLIFASYAMGWYRQAPGKERELVAAISWSGGSTYYADSVKGRFTISRDNAKNTVYLQMNSLKPEDTAVYYCAARKLFIPKYYYWGQGTQVTVSS	high polyreactivity
QVQLVESGGGLVQAGGSLRLSCAASGITFQYYAMGWYRQAPGKERELVAAITSSGVSTYYADSVKGRFTISRDNAKNTVYLQMNSLKPEDTAVYYCNTVVRGWSSSAYDDWGQGTQVTVSS	low polyreactivity
QVQLVESGGGLVQAGGSLRLSCAASGSTFSLYAMGWYRQAPGKERELVARISYTDGSTYYADSVKGRFTISRDNAKNTVYLQMNSLKPEDTAVYYCAADAWYSYTLEDYWGQGTQVTVSS	low polyreactivity
QVQLVESGGGLVQAGGSLRLSCAASGFTFRWYTMGWYRPAPGKERELVAAISWSGTSTYYADSVKGRFTISRDNAKNTVYLQMNSLKPEDTAVYYCAAADFYYTGADDYWGQGTQVTVSS	high polyreactivity
QVQLVESGGGLVQAGGSLRLSCAASGSTFPRNAMGWYRQAPGKERELVAAISGRGVRTYYADSVKGRFTISRDNAKNTVHLQMNSLKPEDTAVYYCAASRGKGVGLAYDYWGQGTQVTVSS	high polyreactivity
QVQLVESGGGLVQAGGSLRLTCAASGFIFSLNAMGWYRQAPGKERELVAAISRCGVRTYYADSVKGRFSISRDNAKNTVYLQMNSLKPEDTAVYYCATAGPYYYYSGPQYDYWGQGTHVTVSS	high polyreactivity
QVQLVESGGGLVQAGGSLRLSCAASGSIFRHYTMGWYRQAPGKERELVAVISSGGNTNYADSVKGLFTISRDNAKYTDYLQLNSLKPEDTAVYYCAAGGYDVYHDPYYYWGQGTQVTVSS	high polyreactivity
QVQHVESGGGLVQAGGSLRLSCAASGRTFRNNAMGWYRQAPGKERELVAAITSGGSTYYADSVKGRFTISRDNAKNTVYLQMNSLKPEDTAVYYCAAVPEYYEYSPYDYWGQGTQVTVSS	low polyreactivity
QVQLVESGGGLVQAGGSLRLSCAASGFTFGANAMGWYRQAPGKERELVAAITKRGGNTYYADSVKGRFTISRDNAKNTVYLQMNSLKPEDTAVYYCARDYTHGYDYWGQGTQVTVSS	high polyreactivity
QVQLVESGGGLVQAAGSLRLSCAASGSIFSTYAMGWYRQAPGKERELVAAINRGTSTNYADSVKGRFTISRDNAKNTVYLQMNSLKPEDTAVYYCAAYYRGRYGPRRSEYWGQGTQVTVSS	high polyreactivity
QVQLVESGGGLVQAGGSLRLSCAASGSIFDGYAMGWYRQAPGTERELVAGISGRGTRTYYADSVKGRFTISRDYAMNTVYLQMNSLKPEDTAVYYCNKAGYFHRLKYYYWGQGTQVTVSS	high polyreactivity
QVQLVESGGGLVQAGGSLRLSCAASGSIFRRYAMGWYRQAPGKERELVAAISFSGYSTYYADSVKGRFTISRDNAKNTVYLQMNSLKPEDTAVYYCAARSQRHKLSRDYNYWGQGTQVTVSS	high polyreactivity
QVHLVESGGGLVQAGGSLRLSCAASGSIISRYTMGWYRQAPGKERELVAAITSSGGSTYYADSVKGRFTISRDNAKNTVYLQMNSLKPEDTAVYYCNKVNRYGKFDYWGQGTQVTVSS	high polyreactivity
QVQLVESGGGLVQAGGSLRLICAASGSIFRYYTMGWYRQGPGKERELVARISSSGSTNYADSVKGRFTISRDNAKNTVYLQMNSLKPEDTEVYYCAARAFSWAGYYYWGQGTQVTLSS	low polyreactivity
QFQLVESGGGVVQAPGSLRLSSAASGSLFTVYAMGWYRQAPGKERELVAAISYGGGSTYYADSVKGRFTISRDTAKNTVYLQMNSLKQEDTAVYYCAADPYYSYGYYHAHGRDVGYWGQGTQVTVSS	low polyreactivity
QVQLVESGGGLVQAGGILRLSCAASGSTFTSYAMGWYRQAPGKERELVAAISKSGGSTYYADSVKGRFTISRDNAKNTVYLQMNSLKPEDTALYYCAARYNVRSYSTSRFYYWGQGTLVTVSS	low polyreactivity
QVQLVESGGGLLQAGGSLRISCAASGRIFGRYAMGWYRQAPGKERELVASISRGGSTNYADSVKGRFTISRDNAKNTVYLQMNSLKPEDTAVYYCAADLNAYPQRAYDYWGQGTQVTVSS	low polyreactivity
QVQLVESGGGLVQAGGSLRLSCAASGSISYRYDMGWYRQSPGKERELVATIRSGGSTNYADSVKGRFTISRDNAKNTVYLQMNSLKPEDTAVYYCAARLYARKKLHFSADSDYWGQGSQVTVSS	low polyreactivity
QVQLVVSGGGLVQAGGSLRLSCAASGRIFYTYAMGWYIQAPGKERELVATITDGGSTYYADSVKVRFTISRDNAMNNVYLQMNILKPEDTAVYYCAADAYQWYDWGQGTHVTVSS	low polyreactivity
QVQLVESGGGLVQAGGSLRLSCAASGGTFLGNAMGWYRQAPGKERELVADITSGGSTNYADSVKGRFTISRDNAKNTVYLQMNSLKPEDTAVDYCNAEYSTSTVWEYDYWGQGTQVTVSS	low polyreactivity
QDQLVESGGGLVQAGGSLRLSCAASGSTFRRYAIGWYRQAPGKERELVAAITSGGRTNYADSVKGRFTISRDNAKNTVYLQMNSLKPEDTAVYYCNAKAYKLGQSYWGYDYWGQGTQVTVSS	high polyreactivity
